# Measured values: patent US20230295308A1, “ANTAGONISTIC BIPARATOPIC ANTIBODIES THAT SPECIFICALLY BIND FIBROBLAST GROWTH FACTOR RECEPTOR 2 AND METHODS OF USING SAME” (The Broad Institute, Inc., priority 2020, published 2023)
# “Also recorded” adds a separate entry of the source.
# B1: 2B 1.3.12 (antibody, V domains shown)
# VH: EVQLVESGGGLVQPGGSLRLSCAASGFPFTSTGISWVRQAPGKGLEWVGRTHLGDGSTNYADSVKGRFTISADTSKNTAYLQMNSLRAEDTAVYYCARTYGIYDTYDMYTEYVMDYWGQGTLVTVSS
# VL: DIQMTQSPSSLSASVGDRVTITCRASQDVDTSLAWYKQKPGKAPKLLIYSASFLYSGVPSRFSGSGSGTDFTLTISSLQPEDFATYYCQQSTGHPQTFGQGTKVEIK
# notes: the duobody scheme implies IgG1 with K409R or F405L; also called Antibody D; GE
# Legend:
# [1] = target: FGFR2 on SNU-16 gastric cancer cell line with FGFR2 amplification (UniProt P21802); assay: FACS on SNU-16 cells, % cells with FITC+ against log antibody concentration; Kd printed in the legend box [cont.]
# [2] = target: FGFR2 on SNU-16 gastric cancer cell line with FGFR2 amplification (UniProt P21802); assay: row 'Kd (nM) (FACS)'; FACS on SNU-16 cells
# [3] = target: FGFR2b alpha IIIb antigen (UniProt P21802); assay: SPR (Biacore), antibody immobilized, FGFR2b alpha IIIb in flow
# [4] = tested on: FGFR2-PHDGH fusion expressing BaF3 cells; assay: ligand stimulated (FGF10) growth of FGFR2-PHGDH fusion expressing BaF3 cells (FIG. 10); type: cell-based; settings: FGF10 present
# Method: FIG. 10 is a graph showing that antibodies C, D, E and F have activity against ligand stimulated growth of FGFR2-PHDGH fusion expressing BaF3 cells.
# The growth of BaF3 cells expressing an FGFR2-PHDGH fusion was assayed in the presence of FGF ligand, FGF10. Antibodies C, D, E and F inhibited ligand stimulated growth of FGFR2-PHDGH fusion expressing BaF3 cells (FIG. 10). Based on the results reported herein above, antagonistic biparatopic antibodies are made using the FGFR2 antibody combinations shown in FIG. 11A. These combinations result in increased growth inhibition effects in oncogenic or cancer cells (e.g., transformed BaF3 cells) that overexpressed […]. Thus, antibodies that bind to epitopes have increased inhibitory and killing effects against cancer cells. Designs for antagonistic biparatopic antibodies are shown at FIGS. 11B and 11C. Advantageously, including complementary mutations in VH-VL and CH1-CL on one-half of the biparatopic antibody results in preferential heterodimeric pairing between two different chains rather than chains from the other half of the same antibody. Alternatively, a linker method is used to create scFab, scFv, or DuoBodies. In this method two antibody chains are each generated in different cells and mixed in vitro. Such methods are known in the art and described, for example, by K. Ding et al, March 2017, Appl. Microbiol. […]
# [5] = target: T1, FGFR2 receptor dimerization (Homo sapiens, UniProt P21802); assay: NANOBIT assay of FGFR2 dimerization; type: cell-based; settings: increasing antibody concentrations, cells stably expressing FGFR2
# T1 construct: expressed in transfected cells
# Source text: FIG. 16A-16F provide schematic illustrations, blots and graphs related to the development of a NANOBIT® assay to measure FGFR2 dimerization. Such an assay is used to screen biparatopic screening for their ability to disrupt FGFR2 dimerization. […] The protein interactions bring the subunits into close proximity to form a functional enzyme that generates a bright, luminescent signal. (FIG. 16B). […] FIG. 16E presents a graph of the results of the NANOBIT® assay using NANOBIT® constructs with or without FGF10 ligand. […] As shown in the graph on the left side of FIG. 16F, certain of the antibodies A-F inhibited the growth of BaF3 cells stably overexpressing FGFR2 (FGFR2IIIb). Antibody D was used in the NANOBIT® assay (graph on the right of FIG. 16F). In the rightmost graph in FIG. 16F, the fold luminescence resulting from FGFR2 WT (wild type) in the assay is represented by the left bar in each set of three bars; the fold luminescence resulting from FGFR2+FGF10 ligand in the assay is represented by the middle bar in each set of three bars; and the fold luminescence resulting from +/−FGF10 ligand difference in the assay is represented by the right bar in each set of three bars shown in FIG. 16F.
# A NANOBIT® assay was developed to measure FGFR2 dimerization in cells, and in particular to screen for biparatopic antibodies that were able to disrupt FGFR2 dimerization. […]
# T1 sequence (P21802 22-822 isoform P21802-3 limits assumed): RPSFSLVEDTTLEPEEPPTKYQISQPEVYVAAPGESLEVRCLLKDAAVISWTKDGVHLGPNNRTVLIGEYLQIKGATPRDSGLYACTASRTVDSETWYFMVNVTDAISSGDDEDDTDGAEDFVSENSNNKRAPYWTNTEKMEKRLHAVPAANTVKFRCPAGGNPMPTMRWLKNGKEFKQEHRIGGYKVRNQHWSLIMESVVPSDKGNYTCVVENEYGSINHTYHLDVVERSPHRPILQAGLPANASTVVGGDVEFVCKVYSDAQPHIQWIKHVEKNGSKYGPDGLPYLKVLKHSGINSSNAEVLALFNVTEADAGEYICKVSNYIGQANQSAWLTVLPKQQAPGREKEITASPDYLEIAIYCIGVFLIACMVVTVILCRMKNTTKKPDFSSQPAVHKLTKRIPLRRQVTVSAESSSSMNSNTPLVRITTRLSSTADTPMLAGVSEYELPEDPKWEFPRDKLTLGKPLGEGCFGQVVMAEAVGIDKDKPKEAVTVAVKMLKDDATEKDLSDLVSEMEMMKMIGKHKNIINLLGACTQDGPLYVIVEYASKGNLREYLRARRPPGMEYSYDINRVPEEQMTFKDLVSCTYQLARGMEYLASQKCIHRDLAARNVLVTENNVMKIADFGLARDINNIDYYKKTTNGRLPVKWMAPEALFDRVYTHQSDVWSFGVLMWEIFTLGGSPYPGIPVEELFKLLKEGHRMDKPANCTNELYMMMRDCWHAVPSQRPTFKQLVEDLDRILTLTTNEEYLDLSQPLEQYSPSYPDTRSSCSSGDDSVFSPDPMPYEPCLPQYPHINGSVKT
# T1 sequence (P21802 22-822 isoform P21802-3 limits assumed): as above
molecule,measurement,setting,value
B1,Kd,[1],1.78 nM
same,Kd,[2],1.78 nM
same,Binding Stoichiometry,[3],1.9
same,inhibition of ligand stimulated growth of FGFR2-PHGDH fusion expressing BaF3 cells,[4],have activity; also recorded: inhibited
same,blocking of FGF-induced dimerization of the FGFR2 receptor,[5],blocks
